The values below come from a protein production outcome set (Wang et al. 2014).
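Further: failed if final PepcDB status was selected cloned or expressed and not failed if soluble or beyond.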

The nature of this series: label from the status in PepcDB records.
On to “MGLLGIVIALGAMIWLAFRGWSILIIAPAAALLAAATAGEPLLAHWTQTFMGTAAGFVAQFFPLFLLGALFGKLMDDSGSVTAIAEWMTRVLGPQRAMLAVVLAGALLTYGGVSLFVAFFVLAPMAHALFRAADIPPRLMPAAIVLGTSTFTMSALPGTPAIQNAIPMPFFSTTPFAAPGLGIVASAIMLTFGLWWLSQRENAARRRGEGYAIAEEEASPDEVAERPLIRELASTAREFDPAEALQGSRSDEPPAAFIALLPLAVVIVVNLLMSFVVLPRVDADYLGLPEWGATTLQAVSGVWSVIVALTAAILCLIALNFRRLPELRDSMGAGAHAAALPVLSVASLVGFGAVVASLPGFGVVRDWVLSIEGGPLVSLAVATNVLSALTGSASGGLTIALDALGGTYLTRAFDLGIDPAILHRVAVMSAGTLDTLPHNGAVVTLLAVCGATHRESYGGIVMVGIVGPMLALAAVIALGSWVGSF”, for which the protein production entry is reported as “failed”.

As for “MGLPSSLESYLLLILLSFLNVSTIYSSKPSKEEAVLFGGNFPAFYVIGDSLVDPGNNNHLPTMIRANYPPYGSDFEGGKATGRFSNGKTIADYIAIYYKLPLVPAYLGLSDDRKDTISTGMNYASAGCGIRRLTGKIAGKCLSLSKQVDLFEETIEKHLKTNFKTPYELREHLAHSLFMTVIGVNDYAFFYTRLTDANDFADELLHKFLKKIEKLHKLGARKFFINNIKPLGCYPNIVAKTVPRGSRRTYKPCYKHLQRKA”, the protein production result is recorded as “failed”.

Consider “MGLSSLPGPSEGMLCVILVNTALSISIVKGIVRSFLGIVGISLSPSSSSPSSVTVSSENSSTSESFDFRVCQPESYLEEFRNRTPTLRFESLCRCKKQADNECSVCLSKFQGDSEINKLKCGHLFHKTCLEKWIDYWNITCPLCRTPLVVVPEDHQLSSNVW”, for which the protein production entry was “failed”.

On to “MGLTEQKQKHMEQLSDKNGIISALAFDQRGALKRLMAKYQSEEPTVSQIEALKVLVAEELTPYASSMLLDPEYGLPATKVLDDNAGLLLAYEKTGYDTSSTKRLPDCLDIWSAKRIKEEGADAVKFLLYYDVDSSDEVNEEKEAYIERIGSECVAEDIPFFLEILSYDEKITDSSGIEYAKIKPRKVIEAMKVFSNPRFNIDVLKVEVPVNMDYVEGFAQGETAYNKATAAAYFREQDQATLLPYIFLSAGVPAQLFQETLVFAKEAGAKFNGVLCGRATWAGSVKEYVEKGEAGARQWLRTIGFQNIDELNKILQKTATSWKER”, for which the protein production entry is given as “not failed”.

Take “MGLVGLHSGTIDMEFIGVEDHGDEEGKQIAVSVISSGKNADKTEDPDSLIFTGFGGTDMYHGQPCNQKLERLNIPLEAAFRKKSIVRVVRCMKDEKRTNGNIYIYDGTYMITNRWEEEGQNGFIVFKFKLVREPDQKPAFGIWKSIQNWRNGLSIRPGLILEDLSNGAENLKVCLVNEVDKENGPALFRYVTSLIHEVINNIPSMVDRCACGRRSCGSKHVFREKLSVSSSLVISAKKSGNVARFMNHSCSPNVFWQSIAREQNGLWCLYIGFFAMKHIPPLTELRYDYGKSRGGGKKMCLCRTKKCCGSFG”: the protein production entry is “failed”.

“MGMLTDVALKALKPKEKIYKIADRDGIYVRVMPSGAISFRLDYRLNGRRETIYLGRYGRDGISLALAREKCLDAKRAIGEGRSPAIEKQRDKRRLKEAKSFGEFGEKWLTAAPMADSTRAMRRAIFERELLPVWRNRLLTEITPDDLRTHCGAIVERGAPATAIHVRDILKQIYGFAILHGEKVANPADEVGPASIATFVPKDRSLSPSEIRVMLKQLEHVATIPTIRLGMRLYLLTMVRKSELQDAVWDEVDFENAVWTIPKERMKRSKAHNVYLSRQALDIMIALKTCAGNSRYLLPSRYDADAPMSRATFNRITYAVVERAKANGLPLEPFTVHDLRRTGSTLLNELGFNSDWIEKCLAHEDGRSSRGVYNKAEYEVQRRHMMQEWSDIVDAWVGGKKHVPTLIPPSMPILAPDPAL”: the protein production entry is reported as “failed”.

“MGNHKAALTKQVFTFASELYAYGVREVVISPGSRSTPLALAFEAHPNIKTWIHPDERSAAFFAVGLIKGSERPVAILCTSGTAAANYTPAIAESQISRIPLIVLTSDRPHELRSVGAPQAINQVNMFNNYVSYEFDMPIADDSKETINAIYYQMQIASQYLYGPHKGPIHFNLPFRDPLTPDLNATELLTSEMKILPHY”: the protein production entry is reported as “failed”.

In the case of “MGNIGSPPKFDEYPNGNEEPRRVLRLNVYFDNPVQNKDGAYDDRGGFWAPVDWWHRDAERWATLFAKGMRVAVRGHLERDDWTDGDGEPHTTYKVDARSVGILPYRLDAVHLSPLEHHHHHH”, the protein production entry is “failed”.

With “MGNKITVEVTVYAAIEKVWKYWNEPAHIMKWCQASPEWHVPAAQNDLKAGGTFTTTMAAKDGSMSFDFGGVYDQVKTNDLIEYTIGDGRKVRIVFTHTGDTTNIVESFDPEETNPRELQQSGWQAILNSFKSYTENNLEHHHHHH”, the protein production entry is recorded as “not failed”.

Consider “MGNNFAQLKRLINFFRTVILPARISQLILQTFLKWQKDNCMDMGAALAYYALFSLFPICLVMLSIAGRLLGADSNYYLQLISFAQNILPEQPFKVFQQALTNLNQSSFSAGLIGFGILVLTASRIFDALNQSVKKIWSVVHQPKENIGVKHHAFNFIRNKILAFLLVLSTVMVFLLSIFANLAAKIFLTVLAEFGQSIPWVTFDSLGLITTLQTSISYFLITVVIITLFKVLPPVRLQWWDIFPGAILTAATMMALQNAVGSGIIRIGENLQAYGVVGNVMVLLLWIYLIFQVFFIGCEFTFVFTYIFGSRHQKEKPF”, for which the protein production result is “failed”.

As for “MGPDGPPCEISTWKHNSMKQIALSLFVIAASGAYVWDQAGKNPANDMLGEALPADAAEAPTVQPKEPASAAALPVLRTSPAPLDPRFRTRLPIARETTAGIAVPAERPNDPVKQTVVPVAPQPSPAPPAQPVTPAVTDPASSTPSFAVTPAIYIPVPQPRPAYPNAPVRVVRVGMKPAAHGYADGVYTGPTADAYYGIIQIQALVQGGQLTALKVLKYPSDRRTSVNINRQALPMLRDEAISAQSADVDIISGATLTSRAFIQSLRGALKKASSLEHHHHHH”, the protein production result is reported as “failed”.

As for “MGPMRTLTVAIDWILIILFVISIILLIYALVKKNKKMAKYAGIAAAIIFILLFIAMRFALTVKPGQ”, the protein production result is given as “failed”.

Turning to “MGPQRRLRPHEPWPTRSQPGSPAAAESSFLPSVSLLSWKLGDSAMSENRKLAAILAADVVGYSRLAGADEDLTLARLRTLRSDLIDPTIAVHHGRVVKRTGDGALVEFRSVVDAVRCAIEVQNGMVERNHGVPQDRRIEFRIGIHLGDVVEESDGDLMGDGVNIASRLEGVAAAGAICLSEDAYRQVKARLDLSVNDLGSTQLKNIAEPIRVYSLQVGSAGTKLAASPETAVSQPATAAPPKLSIAVLPFTNMSGDAEQDYFADGISEDIITALSKLSQLFVIARNSSFTFKGKNVHVQEVGTKLGVRHVLEGSVRKSGNRVRITAQLIDATTGGHLWAERFDRDLTDIFAVQDDVTQQIVGALAVNLTEGDRQRLAPGQTRHPEAYDCFLRGRELWHRLTRQTNSDARDLLQRAVDLDPNFASAHAFLALTHGLDYLNRWSALPQRSLEQAEEVATLAVARDDSDPVAHWALSLVSLYLRQHDRAISEAERAIVLNPNFAEGHVSLGEALIYSGRSGEALAYFDRASVLNPYFPDIVLHFQALALFQLGRYEEAVELLLQRVSRNPVTDVSRALLAACYGHLGRFEEARATWQEVMRVNPDYSLEYRRKVLPFKNPADFELVVEGLRKAGVVQ”, the protein production result is “failed”.

Take “MGQKKYVELSKDIFIFSYLCGGINFTDIANLTQENIVNGRLHYIRQKTGKLIKIGIPQEAMQIIKKYTDESNGYLFPILNVKVHKTALQKQNRIHKIRGKVNDILKTLGKRLGIEANITTYVARHSFASVLKKSGVNIALISEALGHSDLATTQIYLDSFDNEQVDEAMKNLLEHHHHHH”: the protein production entry was “not failed”.

With “MGQPSDLTESTLRFSSLDPLHPPVISQLTAIAKRIRRNSLHLPTIWQEAVDSIGSTLGVSRCLLLTKDFQSRHLQIEAEFCQPTVTAFAALIVPEESEIWRQLFEQHQPITLYNVQFQGEDLGGLWIFPTLYQDQANGYLCLQQVGPAPGPWHPETEALLQELAEQTGTAIAHATLYQELTQATKAAEEASRLKSEFLASTTHELRTPLNGIIGFLRLILDDMADSEAEKHEFVEEAYQSALLLLNLINDILDLAKIEAGRVGIELEVVDFSEVLQATENFALPQAQNKGLSFNLTAPNQGPLLVYGNQRWLLQVMLNIVGNAIKFTHEGGITVAVEVMPRTVLWEGVQKPGLLKVSVGDTGIGVSLEQQSKLFKKFVQIDGSHSKAYGGTGLGLVISQKLVETMGGKVAFFSMGEGLGSTVTFTVLLEELP”, the protein production result was “failed”.

Regarding “MGQQELAFGGGEFHSLWSCRFGAATLARRGCAFRNALAIMRGFPSALAGVRRTMHTLQQLRSGELAGATRLDLSCGLREFPREIFELADSLEVLNLSGNALDSLPDDLGRLHRLKVLFCSANDFDELPAAVGDCPALSMVGFKSNRIERVPAAALPPALRWLILTDNRIATLPEELGRRPLQKLMLAGNRLEALPESMAACEGLELLRIAANRFQRLPAWLATLPRLAWLAYAGNPLCRLPALADSGIAALDWSELSLDGLIGEGASGVIHRAGWHQPDGSTRTVALKLFKGEVTSDGTPASEMAACLAAGRHAQLIEVLGQLAGHPQGRDGLVLELLDDAYRNLAGPPSLESCTRDVYPPGLRFELATALRLAASLAALMAHLHGRGISHGDFYAHNILWREDGACLLGDFGAASFLPDDAVLAGALRRLEVRAFACLLEELLERSEAPPGQASLSAALVELQRRCALPRVSERPDFGEIQAILRDLAARSQAFPQVR”, the protein production entry is listed as “failed”.

Regarding “MGQSIKNNFLLNLSTTITGLLFPLITFPYASRILMADGIGQVQFFQSIIDYVSLCTALGIPLYAVREIARIRDNKELRSRTTIEILLLHAILTLVGYIVVFILAKTVAKIEIDASLFFLLSTTLFFNTIGVAWFYQAIEDFKYITLRSLFVRILSLVALFIFVKTKQDLFYYAGILVIGTVGNNIFNFFRLRKYIKLSKGEFKRLNLLRHLIPALKIFILNLVISIYVNLDSVMLGFLKNEESVGYYAAATRLTKAILGIVSSLGAVLLPRFSNMITNGQKEEFQLLANKAASFTIALSLPMSVGLIFMAAPIIHIFCGNGFEPSILTLKLVAPIVLFIGLSGIIGMQILYPQGREKYVIISTMVGACINLLINYLLIPQYGQYGAALGTVIAEFMVTVIMILLGRKYLPINILSKQNLHYLIGSIVISILLAFLFVFPLHEVNYLLIGILLSVIVYYAYLLMIKDTLALQLKKLLLSIFKQ”, the protein production entry was “failed”.

On to “MGQSLPLLIRLIVVIWLTISMVTACPRAPTHLNHGRRTRGDNGYKLIVADGPNGYVPGKTYNLLLLGSRTHLKVQHFTHFTITAEAHTGARRPQAASPRRVGRFQLFSDSLTQFNDRCVNTVSEADDLPKTEVQVMWVAPESGSGCVSLSAMVYEGPRAWFADDGNLSTVICERKPDAAAAQKECCACDEAKYSFVFEGIWSNETHPKDYPFAIWLTHFSDVIGASHESNFSFWGENHIATAGFRSLAEWGSPAALETELRANGPKLRTLIKAAGLWYPNVNQNTSSKFRVDRKHPKVSLVSMFGPSPDWVVGISGLDLCTEDCSWKESMDFDLFPWDAGTDSGISYMSPNSETQPPERMYRITTMYPEDPRAPFYNPKSREMTPLAKLYLRREKIVSRNCDDEFLQALQLEVSDDAEEQDTRAECRVGDYSAWSPCSVSCGKGIRMRSRQYLYPAAADQNKCARQLVAKEMCVAAIPECADGPAQSKDRDDDEGENLANSQSLVGSNGEGAGLCKTSPWSVWSECSASCGIGITMRTRTFVNHLGRKRCPHITIVEKNKCMRPDCTYEQVELPDPQCPTSQWSDWSPCSSTCGRGVTIRTRLLLLENGPDKESCTQRMELHQQKECVNPIDCHINAEQAKDICVQAPDPGPCRGTYMRYAYDPQNQHCYSFTYGGCRGNRNNFLTENDCLNTCNVLRSPYSSRVDQPRACVLSDWSVWSPCSVSCGVGVSESRRYVVTEPQNGGQPCSKRLVKSRSCAMPAC”, for which the protein production result is recorded as “failed”.

With “MGQTAFVVKTESYRLLWDCITYLDETTITKIKELGGLDAIALSHPHYYSTQVEWAETFDVPIYIHEDDKEWVMRPSSRIIYWSGESLQLADGITVHRLGGHFSGGSVLHWEEGNDGKGILLTGDIIQVVADERWVSFMYSYPNLIPLPARKVEEMVNRVKPLQFNRLYNAFHRVVKLEHHHHHH”, the protein production result is listed as “not failed”.
